The target in experiment [1] is LP-48-FLAG fusion polypeptide (human LP-48 / IL-17C, mature, with the FLAG epitope fused to the native C-terminus) (human) (UniProt Q9P0M4). The experiment is described as follows: HUVEC incubated with 5 ug/ml LP-48, then control antibodies and 125I-protein A (radioimmunoassay).
Experiment [2] concerns the target cell surface of HUVEC (human umbilical vein endothelial cells); LP-48 binding partner not identified (human). In words: HUVEC incubated with 5 ug/ml LP-48; bound LP-48 detected with anti-LP-48 antibodies and 125I-protein A (radioimmunoassay).

Turning to “control antibodies to an unrelated protein (antibody)”, the 125I-Protein A Bound (CPM) in experiment [1] came to 317 CPM.

B1: LP-48-FLAG fusion polypeptide (human LP-48 / IL-17C, mature, with the FLAG epitope fused to the native C-terminus) (ligand)
chain: HHDPSLRGHPHSHGTPHCYSAEELPLGQAPPHLLARGAKWGQALPVALVSSLEAASHRGRHERPSATTQCPVLRPEEVLEADTHQRSISPWRYRVDTDEDRYPQKLAFAECLCRGCIDARTGRETAALNSVRLLQSLLVLRRRPCSRDGSGLPTPGAFAFHTEFIHVPVGCTCVLPRSVDYKDDDDK
Regarding B1, the 125I-Protein A Bound (CPM) in experiment [2] is 5630 CPM.

The values are drawn from patent US20060083713A1.
